According to patent US11866472B2, “Peptide for treating retinitis pigmentosa” (DAIICHI SANKYO COMPANY, LIMITED, priority 2018, dated 2024):
One block for each molecule: values may come before it.

Key:
[1] = test system: rat model of retinal damage induced by light exposure; assay: Retinal protective effect in rat model of retinal damage induced by light exposure; assay type: in vivo
Description: Rat models of retinal damage induced by light exposure are models that induce the cell death of retinal photoreceptor cells by light exposure and are universally used as model animals of retinal degeneration (Daniel T. Organisciak et al., (1996) Invest Ophthalmol Vis Sci. Vol. 37 (No. 11): p. 2243-2257). A 0.5% (W/V) tropicamide-0.5% phenylephrine hydrochloride ophthalmic solution was ocularly instilled under adaptation to darkness to rats adapted to darkness for 72 hours. Then, the rats were exposed to white light of 5500 Lux for 3 hours. The rats thus exposed were adapted again to darkness for about 24 hours and then raised for 2 days under light-dark conditions of ordinary raising. After euthanasia, the eyeballs were excised and fixed by dipping in a 3.7% (W/V) formaldehyde-0.5 to 1% (W/V) methanol-0.2% (W/V) picric acid fixative for 24 hours or longer. After paraffin embedding, thin sliced sections were prepared. The sections were stained with hematoxylin-eosin, and a nucleus count in an outer nuclear layer of a cross-section of the retina was determined to evaluate retinal damage.
Immediately before light exposure of rats, 5 μL of HTRA1-inhibiting peptide H308 having a concentration of 0.04 mg/mL or 0.2 mg/mL was intravitreally administered under anesthesia. n=4 for a normal saline administration group, and n=5 for the other groups.
The retinal protective effects of three HTRA1-inhibiting peptides prepared in Example 6 were evaluated using the rat models of retinal damage induced by light exposure, constructed in Example (5-1). The operation followed Example 5. n=6 for all groups.

[2] = test system: ARPE-19 cells (VEGF mRNA); assay: VEGF mRNA induction test using human retinal pigment epithelial cells ARPE-19; assay type: cell-based; details: 1 μM peptide co-added with H2O2 500 μM, normal human serum complement 25% and HTRA1 1 μM; 4 hours
Description: ARPE-19 cells were cultured until confluent in 12 mm Transwell with […] Pore Polyester Membrane Insert, Sterile (Corning Inc.) under conditions of 37° C. and 5% CO2 using a DMEM/F-12 medium (Wako Pure Chemical Industries, Ltd.) containing 10% fetal bovine serum (FBS) and penicillin-streptomycin (Thermo Fisher Scientific Inc.). Then, the cells were cultured in FBS-free DMEM/F-12 for 5 days. H2O2 (final concentration: 500 μM) was added to the upper and lower layers of the chamber, and normal human serum complement (Quidel Corp.) (final concentration: 25%) was added to the upper layer of the chamber. […] Four hours later, the culture supernatant was removed, and the cells were washed with PBS. Then, mRNA was extracted using SuperPrep™ Cell Lysis & RT Kit for qPCR (Toyobo Co., Ltd.) and subjected to a reverse transcription reaction. The mRNA level of VEGF was quantitatively analyzed by TaqMan Gene Expression Assays (Hs000900055_m1 and Hs02786624_g1; Thermo Fisher Scientific Inc.) using a 7900HT Fast Real-Time PCR System (Applied Biosystems, Inc.). GAPDH was used in the correction of the mRNA level.

[3] = test system: human umbilical vein endothelial cells (HUVEC); assay: HUVEC migration test; assay type: cell-based; details: 300 nM in EGM growth medium; 2 hours
Description: HUVEC (Kurabo Industries Ltd.) was cultured for 18 hours under conditions of 37° C. and 5% CO2 in a medium (0.1% BSA-containing serum-free EGM) in which EBM™-2 basal medium (Lonza Walkersville, Inc.) containing 0.1% BSA was supplemented with an EGM™-2 SingleQuots™ additive factor set except for serum and VEGF. Then, the cells were adjusted to 4×10^5 cells/mL with 0.1% BSA-containing serum-free EGM. 4×10^5 cells/mL of the HUVEC suspension was added at 50 μL/well to the upper layer of a chamber of a Corning FluoroBlok HTS 96 Well Multiwell Permeable Support System with a […] High Density PET Membrane (Corning Inc.) having a gelatin-coated membrane. Then, each sample described below (medium 1, 2 or 3) was added at 210 μL/well to the lower layer of the chamber (n=3). […]
A FluoroBlok HTS 96 Well Multiwell Support System supplemented with the cells and the sample was incubated for 2 hours under conditions of 37° C. and 5% CO2. […] The fluorescence intensity (excitation wavelength/fluorescence wavelength: 485 nm/535 nm) of each well was measured using a plate reader (ARVO-MX, PerkinElmer, Inc.), and the migrated cells were counted for each well according to the following expression. Migrated cells=Mean fluorescence intensity of wells containing HUVEC (n=3)—Mean fluorescence intensity of blank wells (n=3).

[4] = test system: HFD-HQ-loaded 3-year-old rabbits; assay: Protective effect on RPE cells in rabbit retinal damage model (HFD-HQ loading); assay type: in vivo; details: 50 μL of 40 mg/mL intravitreally 2 months after start of HFD-HQ; evaluated at 4 months; vs normal saline fellow eye
Source text: Retinal damage models prepared using high-fat diet (HFD) and hydroquinone (HQ) are models in which oxidative stress is induced by a pro-oxidant to cause retinal damage. These models have been reported only for mice (Diego G. Espinosa-Heidmann et al., (2006) Invest Ophthalmol Vis Sci., Vol. 47 (No. 2): p. 729-737). Accordingly, 3-year-old JW rabbits were fed for 4 months with RC4 (Oriental Yeast Co., Ltd.) diet containing 1.5% (W/V) coconut oil-0.25% (W/V) cholesterol-1.5% (W/V) peanut oil-2.4% (W/V) hydroquinone (HFD-HQ) to construct rabbit retinal damage models. After euthanasia, the eyeballs were excised, and the anterior segment of the eye was removed by an external incision of about 5 mm from the corneal limbus. The vitreous body was further separated. Then, retina-choroid-sclera was fixed by dipping in 4% (W/V) paraformaldehyde fixative for 24 hours or longer. […] The stained choroid was observed under a fluorescence microscope (BZ-9000; Keyence Corp.). The area of stained retinal pigment epithelial (RPE) cells was determined to evaluate RPE cell damage.
The retinal protective effect of the HTRA1-inhibiting peptide H308 prepared in Example 1 was evaluated using the rabbit models. […]
After 4 months from the start of feeding, RPE cell hypertrophy in the model animals was evaluated. […]

HTRA1 (cat) = molecular target: T1, HTRA1 (cat) (Homo sapiens, UniProt Q92743); assay: HTRA1 (cat) inhibitory activity using peptide substrate H2-Opt (Example 3-1); assay type: biochemical; details: decomposition rate of H2-Opt; borate buffer pH 8.5; peptide 1.875 to 1,000 nM
T1 construct: The protease domain (158Gly to 373Lys), which excludes the N-terminal domain and the PDZ domain; made in house; host or cells: E. coli BL21 (DE3)
T1 sequence (Q92743 158-373): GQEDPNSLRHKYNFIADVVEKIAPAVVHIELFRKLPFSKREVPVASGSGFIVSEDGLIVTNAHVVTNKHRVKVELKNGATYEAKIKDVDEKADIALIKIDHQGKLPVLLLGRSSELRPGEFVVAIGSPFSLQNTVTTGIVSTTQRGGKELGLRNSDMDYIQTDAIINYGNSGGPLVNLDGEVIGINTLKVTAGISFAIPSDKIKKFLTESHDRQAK
Description: A substrate peptide H2-Opt (Mca-IRRVSYSFK(Dnp)K) (SEQ ID NO:66) (Peptide Institute, Inc.: SEQ ID NO: 54, FIG. 8) was dissolved at 10 mM in DMSO, diluted with an assay buffer (50 mM borate and 150 mM NaCl, pH 8.5), and used at a final concentration of 10 μM. HTRA1 (HTRA1 (cat) or HTRA1 (full)) and each HTRA1-inhibiting peptide diluted with an assay buffer were mixed at 25 μL each and reacted at 37° C. for 20 minutes. Then, 50 μL of the substrate diluted with an assay buffer was added thereto. A fluorescent signal (excitation at 328 nm/emission at 393 nm) was measured using Enspire (PerkinElmer, Inc.). The final concentration of HTRA1 was 100 nM, and the final concentration of the HTRA1-inhibiting peptide was 1.875 to 1,000 nM. PROTEOSAV® SS96F black plate (Sumitomo Bakelite Co., Ltd.) was used in the reaction and the measurement.
The substrate peptide decomposition rate of the HTRA1-inhibiting peptide at each concentration was calculated. When the decomposition rate at an inhibitor concentration of 0 nM was defined as 100%, the HTRA1 (cat) and HTRA1 (full) inhibitory activity of each HTRA1-inhibiting peptide was evaluated (FIGS. 2 and 3).

[5] = 0.2 and 1 μg/eye intravitreally, n=6

B1: H308_D1G_S16A: N-terminal derivative of H308, 1Asp substituted with Gly, with S16A, SEQ ID NO: 24 (FIG. 36) (protein)
chain: GPQFGLFSKYRTPNCADHAGMACVALYEPVCGSDMSTYENECVLCMKIREGGHNIKIIRNGPCGG
- nucleus count in an outer nuclear layer on a cross-section of the retina [1, 5]: suppressed a decrease in nucleus count in an outer nuclear layer
- expression of VEGF mRNA [2]: confirmed to suppress the expression of VEGF
- migration of HUVEC induced in serum-containing medium [3]: suppressive effect on the migration of HUVEC

B2: H321AT_D1G_S16A: HTRA1-inhibiting peptide derivative, amino acid sequence SEQ ID NO: 28 (FIG. 40) (protein)
chain: GPQFGLFSKYRTPNCADFDGMACYAFYEPVCGSDMSTYANECTLCMKIREGGHNIKIIRNGPCGG
- nucleus count in an outer nuclear layer on a cross-section of the retina [1, 5]: suppressed a decrease in nucleus count in an outer nuclear layer

B3: H322AT_D1G_S16A: HTRA1-inhibiting peptide derivative, amino acid sequence SEQ ID NO: 29 (FIG. 41) (protein)
chain: GPQFGLFSKYRTPNCAQHEGMACYALYEPVCGSDMSTYANECTLCMKIREGGHNIKIIRNGPCGG
- nucleus count in an outer nuclear layer on a cross-section of the retina [1, 5]: suppressed a decrease in nucleus count in an outer nuclear layer

B4: H308: SPINK2 mutant HTRA1-inhibiting peptide, amino acid sequence SEQ ID NO: 9 (FIG. 21) (protein)
chain: DPQFGLFSKYRTPNCSDHAGMACVALYEPVCGSDMSTYENECVLCMKIREGGHNIKIIRNGPCGG
- nucleus count in an outer nuclear layer on a cross-section of the retina ([1]; 5 μL of 0.04 mg/mL or 0.2 mg/mL intravitreally immediately before light exposure, vs normal saline): effect of suppressing the decrease in nucleus count in an outer nuclear layer was confirmed
- hypertrophy of RPE cells: average area of RPE cells [4]: exhibited a suppressive effect on the hypertrophy of RPE cells
- hypertrophy of RPE cells: number of RPE cells having a cell area of 1500 μm^2 or larger [4]: exhibited a suppressive effect on the hypertrophy of RPE cells

- HTRA1 (cat) inhibitory activity (in words) (HTRA1 (cat)): exhibited no HTRA1 inhibitory activity
B5: wild-type SPINK2: human serine protease inhibitor Kazal-type 2, 7 kDa, SEQ ID NO: 1 (FIG. 13); control (protein, listed as Homo sapiens)
chain: DPQFGLFSKYRTPNCSQYRLPGCPRHFNPVCGSDMSTYANECTLCMKIREGGHNIKIIRNGPC
